These results are taken from US20240368668A1, “SUBSTRATES AND BIOMARKERS OF ADAMTS7” (The Broad Institute, Inc., priority 2021, published 2024).

Square brackets hold non-standard residues; d marks the D form. Ends that are not written are not given here.

The test has as its target T1, mouse ADAMTS7 (Mus musculus, UniProt Q68SA9, E373Q).
T1 construct: Full-length mouse Adamts7 1-1857 (Uniprot Q68SA9, WT or E373Q catalytic mutant); expressed in transfected cells; host or cells: Human Coronary Artery Smooth Muscle Cells (HCA-SMC, Lonza), adenovirus 50 MOI
T1 sequence (Q68SA9 221-1657 E373Q): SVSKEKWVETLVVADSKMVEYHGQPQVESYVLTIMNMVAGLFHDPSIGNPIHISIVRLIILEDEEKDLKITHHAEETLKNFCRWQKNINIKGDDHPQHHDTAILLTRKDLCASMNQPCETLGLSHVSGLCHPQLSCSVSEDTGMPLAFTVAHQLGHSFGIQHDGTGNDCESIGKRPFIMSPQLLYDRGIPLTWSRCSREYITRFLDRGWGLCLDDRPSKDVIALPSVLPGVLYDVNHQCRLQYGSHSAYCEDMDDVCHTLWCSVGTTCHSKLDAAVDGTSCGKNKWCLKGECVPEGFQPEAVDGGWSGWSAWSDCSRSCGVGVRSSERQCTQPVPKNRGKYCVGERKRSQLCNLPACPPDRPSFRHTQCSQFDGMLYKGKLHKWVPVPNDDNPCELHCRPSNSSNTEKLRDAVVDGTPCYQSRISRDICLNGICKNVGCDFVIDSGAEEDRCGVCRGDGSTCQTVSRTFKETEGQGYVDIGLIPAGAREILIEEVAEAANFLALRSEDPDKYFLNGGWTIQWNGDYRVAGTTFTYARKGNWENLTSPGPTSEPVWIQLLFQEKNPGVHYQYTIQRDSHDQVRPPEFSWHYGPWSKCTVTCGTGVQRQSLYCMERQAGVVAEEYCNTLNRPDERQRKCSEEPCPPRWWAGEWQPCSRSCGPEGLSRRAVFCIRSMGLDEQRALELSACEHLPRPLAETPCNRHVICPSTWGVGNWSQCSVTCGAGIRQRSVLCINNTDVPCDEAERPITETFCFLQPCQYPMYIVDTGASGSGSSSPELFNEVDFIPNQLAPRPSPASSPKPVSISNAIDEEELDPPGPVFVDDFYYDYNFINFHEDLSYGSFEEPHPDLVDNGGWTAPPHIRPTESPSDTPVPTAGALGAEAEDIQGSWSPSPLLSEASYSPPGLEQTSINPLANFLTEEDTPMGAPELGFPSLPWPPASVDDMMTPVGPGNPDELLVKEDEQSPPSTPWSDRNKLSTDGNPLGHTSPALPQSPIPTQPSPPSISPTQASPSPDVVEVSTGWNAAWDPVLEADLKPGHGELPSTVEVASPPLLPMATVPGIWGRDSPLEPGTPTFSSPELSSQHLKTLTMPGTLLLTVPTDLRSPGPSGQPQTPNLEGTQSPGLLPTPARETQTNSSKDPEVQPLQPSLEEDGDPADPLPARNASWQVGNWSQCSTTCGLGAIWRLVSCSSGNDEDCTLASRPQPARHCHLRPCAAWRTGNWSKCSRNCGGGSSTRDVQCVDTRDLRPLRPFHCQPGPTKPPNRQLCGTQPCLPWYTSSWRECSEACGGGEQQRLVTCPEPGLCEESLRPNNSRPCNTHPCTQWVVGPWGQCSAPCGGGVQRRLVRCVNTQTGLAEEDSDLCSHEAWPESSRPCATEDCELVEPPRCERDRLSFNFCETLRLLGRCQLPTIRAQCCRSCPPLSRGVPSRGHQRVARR
Nature of the test: TMT10 TAILS N-terminomics, SMC1 experiment (Ad-mADAMTS7 WT vs EQ vs Luc, technical replicates, trypsin digest). The test is classed as cell-based. The note with it: TAILS neo-N-terminal peptide abundance; log fold change, Ad-mADAMTS7 EQ over Luc. Put shortly: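 Full-length mouse ADAMTS7 (WT or E373Q mutant, C-terminal 3xFLAG) or luciferase was transduced via adenovirus, 50 MOI, into HCA-SMC (SMC1, SMC2) or HUVEC. SMC1: pooled media, technical triplicates 400 ug; SMC2: process triplicates 300 ug; HUVEC: process triplicates 200 ug, bFGF2 10 ng/ml.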
Turning to “LOXL2_38 ([code q]QPAPEYHQPQAPANVAKIQLR; not fully specified; listed as Homo sapiens)”, the logFC.mEQ.over.Luc is 0.11.

In turn, “LOXL2_318 (AYKPEQPLVR; listed as Homo sapiens)” yielded a logFC.mEQ.over.Luc of 0.00. The value for “LOX_58 (LSLGSQYQPQR; listed as Homo sapiens)” was −0.11; that for “LOX_80 (ANASAQQPR; listed as Homo sapiens)” was −0.16; that for “LOX_81 (NASAQQPR; listed as Homo sapiens)” was −0.30.

Take “LOX_123 (HWFQAGYSTSR; listed as Homo sapiens)”: the logFC.mEQ.over.Luc is given as −0.22. The value for “LOX_124 (WFQAGYSTSR; listed as Homo sapiens)” was 0.08; that for “LOX_126 (QAGYSTSR; listed as Homo sapiens)” was 0.02; that for “LTBP1_393 (LTATNFR; listed as Homo sapiens)” was 0.14. The value for “LTBP1_494 (SVQIHQVSR; listed as Homo sapiens)” was −0.01; that for “LTBP1_540 (HQQVIPHVYPVAAKTQLGR; listed as Homo sapiens)” was 0.13; that for “LTBP1_546 (HVYPVAAKTQLGR; listed as Homo sapiens)” was −1.05. Consider “LTBP2_485 (SVQIHQVAQVR; listed as Homo sapiens)”, for which the logFC.mEQ.over.Luc is recorded as −0.42. Substance “LTBP2_533 (SGEPPRPLPPAAPR; listed as Homo sapiens)” gave a logFC.mEQ.over.Luc of 0.28. On to “LTBP2_677 (SLGPGTCTLPLAQR; listed as Homo sapiens)”, for which the logFC.mEQ.over.Luc worked out at 0.05.

Regarding “LTBP2_760 (SSGALPGPAER; listed as Homo sapiens)”, the logFC.mEQ.over.Luc turned out to be 0.29.

Substance “LTBP2_1023 (GKCTNLEGSFR; listed as Homo sapiens)” showed a logFC.mEQ.over.Luc of 0.03.

“LTBP2_1371 (SGQKGHAPCSSVLGR; listed as Homo sapiens)” came in with a logFC.mEQ.over.Luc of 0.31.

Substance “LTBP2_1560 (TTYTECCCQDGEAWSQQCALCPPR; listed as Homo sapiens)” had a logFC.mEQ.over.Luc of 0.23.

The substance “LTBP2_1584 (SSEVYAQLCNVAR; listed as Homo sapiens)” came in with a logFC.mEQ.over.Luc of 0.32.
